The text below walks through data of PMC9352680, “A comprehensive thermodynamic model for RNA binding by the Saccharomyces cerevisiae Pumilio protein PUF4”.

Some results are limits rather than exact numbers.

The term Kd denotes a measure of binding affinity in units of concentration. Read a high Kd as lower affinity.

The chains are these.
T1: PUF4 RNA-binding domain (Saccharomyces cerevisiae, UniProt P25339 537-888)
T1 sequence: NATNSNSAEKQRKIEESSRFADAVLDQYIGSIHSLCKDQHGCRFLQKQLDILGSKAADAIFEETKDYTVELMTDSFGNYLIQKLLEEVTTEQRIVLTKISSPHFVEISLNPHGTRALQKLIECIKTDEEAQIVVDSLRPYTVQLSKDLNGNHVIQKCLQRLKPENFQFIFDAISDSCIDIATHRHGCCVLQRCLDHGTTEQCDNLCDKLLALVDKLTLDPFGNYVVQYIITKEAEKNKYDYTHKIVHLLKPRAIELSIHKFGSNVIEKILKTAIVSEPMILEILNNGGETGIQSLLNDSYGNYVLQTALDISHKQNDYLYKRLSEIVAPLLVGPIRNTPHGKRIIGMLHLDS

The target of this data set is T1, PUF4 RNA-binding domain. In words: Mg; RNA-MaP; 20 mM Na-HEPES pH 7.4, 30 mM KOAc, 0.75 mM MgCl2, 0.1% Tween-20, 5% glycerol, 0.1 mg/mL BSA, 2 mM DTT; 25 C; 0.0125-409.6 nM protein. The note with it: tags: N-His6-TEV cleaved; C-SNAP kept, Cy3B-labelled; label: tethered on chip by stalled RNA polymerase.
Take UCUCUUGGACACUUAUUAACUCUCUU (ssRNA) [Id_ii_S1_P5E.4_K5.3_C5.2_[C-2G]_[T-1G]_H5.3_A5.1_F5.1_T5.2_[T11A]_[A12C]]: the Kd is > 2300 nM.

On to UCUCUUCAUAUAUUAUUAGUUCUCUU (ssRNA) [Id_ii_S1_P5E.3_K5.2_C5.2_[T-1A]_H5.2_A5.1_F5.1_T5.2_[T11G]_[A12T]], for which the equilibrium dissociation constant (Kd) was 141 nM.

On to UCUCUUUGUAUUAGUCUCUCUU (ssRNA) [Ib_S1_P5E.1_K5.1_C5.1_H5.1_A5.1_F5.1_[T8G]_[A10C]_T5.1], for which the Kd was 518 nM.

Molecule UCUCUUCAUAUAUUAUUAACUCUCUU (ssRNA) [Id_ii_S1_P5E.3_K5.2_C5.2_[T-1A]_H5.2_A5.1_F5.1_T5.2_[T11A]_[A12C]] returned a Kd of 218 nM.

UCUCUUCCUAUAUUAUUACGUCUCUU (ssRNA) [Id_ii_S1_P5E.3_K5.2_C5.2_[T-1C]_H5.2_A5.1_F5.1_T5.2_[T11C]_[A12G]] displayed a Kd of 746 nM.

As to UCUCUUCGUAUAUUAUUAAAUCUCUU (ssRNA) [Id_ii_S1_P5E.3_K5.2_C5.2_[T-1G]_H5.2_A5.1_F5.1_T5.2_[T11A]], binding was put at a Kd of 38.8 nM.

UCUCUUCCUAUAUUAUUACAUCUCUU (ssRNA) [Id_ii_S1_P5E.3_K5.2_C5.2_[T-1C]_H5.2_A5.1_F5.1_T5.2_[T11C]] had a Kd of 592 nM.

The molecule UCUCUUCUUAUAUUAUUAUCUCUCUU (ssRNA) [Id_ii_S1_P5E.3_K5.2_C5.2_H5.2_A5.1_F5.1_T5.2_[A12C]] displayed a Kd of 491 nM.

In turn, UCUCUUGCACACUUAUUAUUUCUCUU (ssRNA) [Id_ii_S1_P5E.4_K5.3_C5.2_[C-2G]_[T-1C]_H5.3_A5.1_F5.1_T5.2_[A12T]] had a Kd of 1420 nM.

UCUCUUCUUAUAUUAUUACGUCUCUU (ssRNA) [Id_ii_S1_P5E.3_K5.2_C5.2_H5.2_A5.1_F5.1_T5.2_[T11C]_[A12G]]: the Kd was 447 nM.

With UCUCUUCAUAUAUUAUUACCUCUCUU (ssRNA) [Id_ii_S1_P5E.3_K5.2_C5.2_[T-1A]_H5.2_A5.1_F5.1_T5.2_[T11C]_[A12C]], the Kd worked out at 278 nM.

Take UCUCUUUGUAUUACCAUCUCUU (ssRNA) [Ib_S1_P5E.1_K5.1_C5.1_H5.1_A5.1_F5.1_[T8C]_[T9C]_T5.1]: the affinity, expressed as Kd, was 287 nM.

UCUCUUGUACACUUAUUACCUCUCUU (ssRNA) [Id_ii_S1_P5E.4_K5.3_C5.2_[C-2G]_H5.3_A5.1_F5.1_T5.2_[T11C]_[A12C]] yielded a Kd of 3.22 nM.

The molecule UCUCUUCGUAUAUUAUUAUUUCUCUU (ssRNA) [Id_ii_S1_P5E.3_K5.2_C5.2_[T-1G]_H5.2_A5.1_F5.1_T5.2_[A12T]] returned a dissociation constant (Kd) of 26.6 nM.

The molecule UCUCUUCGUAUAUUAUUAGUUCUCUU (ssRNA) [Id_ii_S1_P5E.3_K5.2_C5.2_[T-1G]_H5.2_A5.1_F5.1_T5.2_[T11G]_[A12T]] had a Kd of 25.4 nM.

In turn, UCUCUUCGUAUAUUAUUAACUCUCUU (ssRNA) [Id_ii_S1_P5E.3_K5.2_C5.2_[T-1G]_H5.2_A5.1_F5.1_T5.2_[T11A]_[A12C]] yielded a Kd of 27.7 nM.

The molecule UCUCUUCUUAUAUUAUUACAUCUCUU (ssRNA) [Id_ii_S1_P5E.3_K5.2_C5.2_H5.2_A5.1_F5.1_T5.2_[T11C]] had a Kd of 471 nM.

In the case of UCUCUUGGACACUUAUUAUAUCUCUU (ssRNA) [Id_ii_S1_P5E.4_K5.3_C5.2_[C-2G]_[T-1G]_H5.3_A5.1_F5.1_T5.2], the Kd is > 2300 nM.

Consider UCUCUUCAUAUAUUAUUAUCUCUCUU (ssRNA) [Id_ii_S1_P5E.3_K5.2_C5.2_[T-1A]_H5.2_A5.1_F5.1_T5.2_[A12C]], for which the Kd was 180 nM.

With UCUCUUCCUAUAUUAUUAUUUCUCUU (ssRNA) [Id_ii_S1_P5E.3_K5.2_C5.2_[T-1C]_H5.2_A5.1_F5.1_T5.2_[A12T]], binding was put at a Kd of 517 nM.

Regarding UCUCUUUGUAUUACUGUCUCUU (ssRNA) [Ib_S1_P5E.1_K5.1_C5.1_H5.1_A5.1_F5.1_[T8C]_[A10G]_T5.1], the Kd is 71.2 nM.

On to UCUCUUCGUAUAUUAUUAUCUCUCUU (ssRNA) [Id_ii_S1_P5E.3_K5.2_C5.2_[T-1G]_H5.2_A5.1_F5.1_T5.2_[A12C]], for which the equilibrium dissociation constant (Kd) was found to be 18.4 nM.

With UCUCUUCUUAUAUUAUUACUUCUCUU (ssRNA) [Id_ii_S1_P5E.3_K5.2_C5.2_H5.2_A5.1_F5.1_T5.2_[T11C]_[A12T]], binding was characterised by a dissociation constant (Kd) of 439 nM.

UCUCUUCUUAUAUUAUUAGCUCUCUU (ssRNA) [Id_ii_S1_P5E.3_K5.2_C5.2_H5.2_A5.1_F5.1_T5.2_[T11G]_[A12C]] came in with a Kd of 122 nM.

As to UCUCUUCUUAUAUUAUUAUUUCUCUU (ssRNA) [Id_ii_S1_P5E.3_K5.2_C5.2_H5.2_A5.1_F5.1_T5.2_[A12T]], the affinity, expressed as Kd, was 228 nM.

UCUCUUCUUAUAUUAUUAAUUCUCUU (ssRNA) [Id_ii_S1_P5E.3_K5.2_C5.2_H5.2_A5.1_F5.1_T5.2_[T11A]_[A12T]] showed a Kd of 460 nM.

For the molecule UCUCUUGCACACUUAUUAAUUCUCUU (ssRNA) [Id_ii_S1_P5E.4_K5.3_C5.2_[C-2G]_[T-1C]_H5.3_A5.1_F5.1_T5.2_[T11A]_[A12T]], the Kd is 1370 nM.

UCUCUUGUACACUUAUUACUUCUCUU (ssRNA) [Id_ii_S1_P5E.4_K5.3_C5.2_[C-2G]_H5.3_A5.1_F5.1_T5.2_[T11C]_[A12T]]: the Kd was found to be 5.88 nM.

Take UCUCUUCUUAUAUUAUUAACUCUCUU (ssRNA) [Id_ii_S1_P5E.3_K5.2_C5.2_H5.2_A5.1_F5.1_T5.2_[T11A]_[A12C]]: the dissociation constant (Kd) stood at 476 nM.
